Data on 1 molecule can be found in publication PMC6326779 (2018).

The Ki is the equilibrium dissociation constant of an inhibitor or competing ligand from its target. The low end stands for a stronger hold on the target, the high end for a looser hold on the target.

This test deals with T1, CRBN (Homo sapiens, UniProt Q96SW2).
T1 chain: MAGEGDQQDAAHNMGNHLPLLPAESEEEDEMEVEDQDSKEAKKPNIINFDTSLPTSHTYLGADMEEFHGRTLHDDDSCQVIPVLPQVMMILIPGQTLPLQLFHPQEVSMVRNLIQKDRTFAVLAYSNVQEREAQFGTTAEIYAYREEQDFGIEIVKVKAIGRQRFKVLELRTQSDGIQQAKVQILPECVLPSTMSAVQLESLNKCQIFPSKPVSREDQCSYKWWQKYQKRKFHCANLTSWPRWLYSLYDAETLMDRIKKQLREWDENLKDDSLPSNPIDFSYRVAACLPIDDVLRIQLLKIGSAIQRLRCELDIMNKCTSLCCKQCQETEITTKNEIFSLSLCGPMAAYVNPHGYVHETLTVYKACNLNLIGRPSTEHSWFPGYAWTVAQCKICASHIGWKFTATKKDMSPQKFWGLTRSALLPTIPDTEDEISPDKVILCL
In words: TR-FRET.

B1: IKZF1 ZF2-ZF3 143-243(Δ197-238) (protein)
chain: RPFQCNQCGASFTQKGNLLRHIKLHSGEKPFKCHLCNYACRRRDALTGHLRTHSVGKPHKCGYCGRSYKQRSSLEEHKERCHNYLESMGLPGTLYPVIKEE
modifications: pomalidomide
Regarding B1, the affinity corresponds to a Ki of 165 nM.
